Experimental data as given in paper doi:10.1101/2020.01.13.904870 (bioRxiv, 2020).
Blank lines part the entries; values can stand above or below the molecule they belong to.

Key:
[1] = target: Arabidopsis thaliana Fructosamine-3-kinase homolog (AtFN3K), wild type (Arabidopsis thaliana) (UniProt Q9LEW8); assay: SEC
[2] = target: AtFN3K C32A/C236A/C196A triple cysteine mutant (Arabidopsis thaliana); assay: SEC
[3] = target: AtFN3K C32A/C236A/C196A triple cysteine mutant (Arabidopsis thaliana); assay: AUC
non-reducing SDS-PAGE = target: the molecule itself; assay: non-reducing SDS-PAGE

stoichiometry N [1]: 2
Molecule: Arabidopsis thaliana Fructosamine-3-kinase homolog (AtFN3K), wild type (from UniProt Q9LEW8 31-326) (enzyme)

stoichiometry N [2]: 2
stoichiometry N [3]: 2
Molecule: AtFN3K C32A/C236A/C196A triple cysteine mutant (enzyme)

B1: Recombinant His-HsFN3K (human Fructosamine-3-kinase), wild type (enzyme, UniProt Q9H479 1-309, looked up)
chain: MEQLLRAELRTATLRAFGGPGAGCISEGRAYDTDAGPVFVKVNRRTQARQMFEGEVASLEALRSTGLVRVPRPMKVIDLPGGGAAFVMEHLKMKSLSSQASKLGEQMADLHLYNQKLREKLKEEENTVGRRGEGAEPQYVDKFGFHTVTCCGFIPQVNEWQDDWPTFFARHRLQAQLDLIEKDYADREARELWSRLQVKIPDLFCGLEIVPALLHGDLWSGNVAEDDVGPIIYDPASFYGHSEFELAIALMFGGFPRSFFTAYHRKIPKAPGFDQRLLLYQLFNYLNHWNHFGREYRSPSLGTMRRLLK
binding result (non-reducing SDS-PAGE): binds
